We go through 21 sequences from the DeepSol protein solubility set.

The data set in a line: soluble on expression in E. coli; label from the status in PepcDB or PDB records.
Consider “SNAMNFFTSPFSGIPLDQQVTNPNIIVGKHSYYSGYYHGHSFDDCVRYLHPERDDVDKLVIGSFCSIGSGAVFMMAGNQGHRSDWISTFPFFYQDNDNFADARDGFTRSGDTIIGHDVWIGTEAMIMPGVKIGHGAIIASRSVVTKDVAPYEVVGSNPAKHIKFRFSDVEIAMLLEMAWWNWPESWLKESMQSLCSSDIEGLYLNWQSKART”, for which the “soluble on expression in E. coli” value was “soluble”.

In the case of “AHHHHHHGSIDAHAHIEFFKKNQEEIIEEAKRKLRGVVDSITEYRKTHVWKSWELLKDYFDFIFPTLGYHPNEARRGNWEKVRKVEDFILKHQKEIFGIGEIGLDYYHAKTKAERDAQREIFVHFLELAKELNLPVVIHAREAEKEALEIINRYDIPSYFHSYTGSVEVAREIVDGGHILGISTGIVFIPEVREVAKNIEIEYLVVETDAPYMSPYKGIRNKPIFVEVAIEELAKIKGMDKTEVEAVTEVNTIKFFSLPL”, the “soluble on expression in E. coli” value was “soluble”.

“MNNSAFTFQTLHPDTIMDALFEHGIRVDSGLTPLNSYENRVYQFQDEDRRRFVVKFYRPERWTADQILEEHQFALQLVNDEVPVAAPVAFNGQTLLNHQGFYFAVFPSVGGRQFEADNIDQMEAVGRYLGRMHQTGRKQLFIHRPTIGLNEYLIEPRKLFEDATLIPSGLKAAFLKATDELIAAVTAHWREDFTVLRLHGDCHAGNILWRDGPMFVDLDDARNGPAVQDLWMLLNGDKAEQRMQLETIIEAYEEFSEFDTAEIGLIEPLRAMRLVYYLAWLMRRWADPAFPKNFPWLTGEDYWLRQTATFIEQAKVLQEPPLQLTPMY”: the “soluble on expression in E. coli” value is “soluble”.

With “MSDAFTDVAKMKKIKEDIRAHEGQLVELTLENGRKREKNKIGRLIEVYSSLFIIEYSDSSDTPGAIDNSYVESYTYSDILTEKTLIRYLD”, the “soluble on expression in E. coli” value is “not soluble”.

Regarding “MNIHEIRKQFPILDQKVNGKQLVYFDSAATSQKPIQVIETLERYYKEYNSNVHRGVHTLGTKATDAYEGAREKVRKFINAKSMEEIIFTCGTTTALNTVAASYGLENVKEGDEIVISYMEHHSNIIPWQQVAKKTGATLKYLPLQPDGTISIEDARQTITPNTKIVSIMYVSNVLGTINPVKEIGAIAHENGAIMVVDGAQSTPHMKVDVQDLNCDFYALSAHKMCGPTGIGVLYGKKELLNNMEPIEFGGEMIDFVDLQESTWKELPWKFEAGTPIIGNAIGLGAAIDFLEEIGLDNIEKHEHELAQYALERLSEVDGVTIYGPKHRAGLVTFNIEDVHPHDVATVLDVEGIAVRAGHHCAQPLMKWLKASSTARASFYLYNTKEEIDTFVESLIKTKEYFTNVI”, the “soluble on expression in E. coli” value is listed as “not soluble”.

In the case of “MLITVYCVRRDLSEVTFSLQVSPDFELRNFKVLCEAESRVPVEEIQIIHMERLLIEDHCSLGSYGLKDGDIVVLLQKDNVGPRAPGRAPNQPRVDFSGIAVPGTSSSRPQHPGQQQQRTPAAQRSQGLASGEKVAGLQGLGGPALIRSMLLSNPHDLSLLKERNPPLAEALLSGSLETFSQVLMEQQREKALREQERLRLYTADPLDREAQAKIEEEIRQQNIEENMNIAIEEAPESFEQVTMLYINCKVNGHPLKAFVDSGAQMTIMSQACAERCNIMRLVDRRWAGVAKGVGTQRIIGRVHLAQIQIEGDFLQCSFSILEDQPMDMLLGLDMLRRHQCSIDLKKNVLVIGTTGTQTYFLPEGELPLCSRMVSGQDESSDKEITHSVMDSGRKEH”, the “soluble on expression in E. coli” value was “soluble”.

“MGSDKIHHHHHHMHNVDQQELSKFEQMAHSWWDPNGSFKPIHLLNPLRFNYIQTKANGLFGKKVLDVGCGGGILSEAMAQAGAIVTGIDMTTEPLEIAKQHAIENGLTIHYQQTTVEDLRLNHTACNAEKFDVVTCMEMLEHVPDPLSVIQSCKALLKPDGVLFLSTINRTLKAYMLVVIGAEYLLKMLPKGTHEFEKFIKPAELLTWCDQASLECKEMKGYHFNPLTEKFWLNNDVSCNYIAMLKAK”: the “soluble on expression in E. coli” value is recorded as “not soluble”.

Take “MGSDKIHHHHHHMNKIINNILNTCKQYTYILPHKLLRQYIAHYTISIPDTSIKENLTLIPDASGCMIFKFDKKGIESAFWGATTKTTIVKNDIENVLFRVFVEFRPGGVYYLTGLSQRESTDLKISLEDFNTLFSLEVNSIFERTSTIKELVEQLDMLFLSYLLKSNIVDMTIPILENARKQNSIMSVKNISQISCYSERHLNRIFNNSLGMSVKSYLRLLRINLVLQEIQNNKIPFATLAQDIGYYDQSHFINDFKSICGVNPTTYIKNLSDFYNEKYKF”: the “soluble on expression in E. coli” value is given as “not soluble”.

With “MSRVKLGHHYYYIVTPQDLRDGKYKGKNIVIEGEIKDKPIIEFLPMELPSYRTIFRVSGFKVEFSGTPNVRMGEKVKVYGVFVGDGIIARAIETEGAIYITEE”, the “soluble on expression in E. coli” value was “soluble”.

With “MSKAIKQNLADSKKMSAELFCLTYGAMVTEMLKDYEDPKDVTIQLDKMGFNMGTRLADDFLAKNANVPRCVDTRQIADVLCRNAIPCYLGISATASSWTSGDREFTITLEANPLTELVQVPAHLVSAGLSYSQLIAGAIRGALEAVHFKVYASATDTGANTEIRIRFDQVLKDSLPAGEDD”, the “soluble on expression in E. coli” value is reported as “not soluble”.

Take “MSLYQRCFDNASETLFVAGKTPRLSRFAFSDDPKWESGHHVHDNETELIYVKKGVARFTIDSSLYVAHADDIVVIERGRLHAVASDVNDPATTCTCALYGFQFQGAEENQLLQPHSCPVIAAGQGKEVIKTLFNELSVILPQSKNSQTSSLWDAFAYTLAILYYENFKNAYRSEQGYIKKDVLIKDILFYLNNNYREKITLEQLSKKFRASVSYICHEFTKEYRISPINYVIQRRMTEAKWSLTNTELSQAEISWRVGYENVDHFAKLFLRHVGCSPSDYRRQFKNCFAEQEILSEFPQPVSLVGEGGSHHHHHH”: the “soluble on expression in E. coli” value is “soluble”.

With “MSLAASRRRNTYSQKVNMSNNVRADSLSLLLFTLRSGKLMAINLLKVSEIIPCPALTHLPESHPHVKGIATLRGSSLAVIDLSRAIGERPLADPDGGCLIVTDVSRSKQGLHVQAVSKIVHCLTTDIRPPPYGSSSKSFITGVTQVDGVLVQVLDIEKVIHGIAPAQIVVQSTELAKEDAEVLSKARILVVDDSQVALQQSIITLRNLGIECHTARSAREAIDVLLDLQGTARQINVVVSDIEMSEMDGYALTRTLRDTPDFSDLYILLHTSLDSAMNSEKSQIAGANAVLTKFSSPELTKCLIEAARTVVAQGEGHHHHHH”, the “soluble on expression in E. coli” value is “soluble”.

In the case of “MSLNYVAEIDLLAEELAQELEIEGGETYGILAAHLRSLYGIHITRTEAAGGLIRHFDPAGKTLALSSYMAAPTRCFQLALQIAQLHAGATVDRVLAGAGFRNAEAAEICRIGLHNYFAAALILPYGQFHRAAQELRHDLELLAVRFGASLEQVAHRLSTLQRPGMKGVPIFFAKIDRAGNITKRHSATRLQFARFGAACPLWNIHQAFESSDRIVRQLAETPDGVRYLSIATQIEKAGAGFNTERPRYAIALGCEISHAQNFVYADTLDLGNAASFKPIGISCRVCERVDCVQRAVPPLKRKLHFDHLSRGALPYQIAEGHHHHHH”, the “soluble on expression in E. coli” value is on record as “not soluble”.

For “MKSPQAQQILDQARRLLYEKAMVKINGQYVGTVAAIPQSDHHDLNYTEVFIRDNVPVMIFLLLQNETEIVQNFLEICLTLQSKGFPTYGIFPTSFVETENHELKADYGQRAIGRVCSVDASLWWPILAYYYVQRTGNEAWARQTHVQLGLQKFLNLILHPVFRDAPTLFVPDGAFMIDRPMDVWGAPLEIQTLLYGALKSAAGLLLIDLKAKGYCSNKDHPFDSFTMEQSHQFNLSVDWLKKLRTYLLKHYWINCNIVQALRRRPTEQYGEEASNEHNVHTETIPNWLQDWLGDRGGYLIGNIRTGRPDFRFFSLGNCLGAIFDVTSLAQQRSFFRLVLNNQRELCAQMPLRICHPPLKDDDWRSKTGFDRKNLPWCYHNAGHWPCLFWFLVVAVLRHSCHSNYGTVEYAEMGNLIRNNYEVLLRRLPKHKWAEYFDGPTGFWVGQQSRSYQTWTIVGLLLVHHFTEVNPDDALMFDLPSLKSLHQALHLEHHHHHH”, the “soluble on expression in E. coli” value is reported as “not soluble”.

Turning to “MVAASKEFVFHHTFKDVSQLEDGDFFKSPEEIHYNAEWFILVIRTKDQLEAYLHCDNEKDDNVAWTVDAEFSLKIASSSGSYAMKFQKGCFDGFGLGWNDFVSWDSLTEDFLYDNSFTIEACVKITKMTGFSKDVLRSFDESEKRFSDVILVVGDEKFYVLKLFLASHSSYFNALFLGKFKEADQSEVTLQNIDPTDFQSLLEVLYGEPAIDDGTIDGVLLLAHMLDVTLAIRKCEEFLIEKSMKSMRELLKMANQYQLENLKVKFYFLKIPEN”, the “soluble on expression in E. coli” value is listed as “not soluble”.

With “SLKIAIVRLSALGDIIQSAVVLQFIKNFKKDIEIHWFVDEKFEGILKNHPLINKLYALPLKDKKILKSLKILLKARKNNYNAVIDLQGLIKSAIVSRILSRNNFGFDKNSLKESFAHNFYNQKLELDYNENVFVRYLSLTSFMLNTDFNVKNLAFKQDIFSVDENLKQLLNNKLKLDKNEKNILIHVGSSVENKIYPKTKLAILCKLLINEFQQTKIWLAWGNVKEYEFAKEVLNLSGIDETHIELAPKFNLEELMAFTKMMNLIIGNDSGPTHLAFALNKASITIFGATPSYRNAFQTHINKIIDAGKKIQNAKHIDKSDFCITRIEEEDIFKLAKGLLN”, the “soluble on expression in E. coli” value is on record as “soluble”.

For the sequence “MKKERKPKIVIMGGGTGLSVLLRGLKQYPVDITAVVTIADDGGSSGRLRDELEIPPPGDIRNVLVALSDVEPLVEALFQHRFTTGDGLKGHALGNLLLAGMTSITGDFFHAITETSKVLNVRGRVLPAANQSAVLHAELEDGEIVTGESKIPYYGKKINRVFLTPEDVEPLHETLAEIKRADLLVFGPGSLYTSILPNLVVNKIGDAVLAAKAKKVYVCNVMTQAGETMGYTAFDHVQALHDHLGQPFINTAIVNNREIPCELRKSYEEEMSTPVVVDEERFVENNIDVIQEGLAKYDDHVVRHDTLKLASILYSLLMAGDPLEHHHHHH”, the “soluble on expression in E. coli” value was “soluble”.

For the sequence “MSRVAPRDSAAQAASAVAESVRYQGRKASRQGSEQRRQAILDAAMRLIVRDGVRAVRHRAVAAEAQVPLSATTYYFKDIDDLITDTFALFVERNAEALSAFWSSVEGDLQEMAAVLADDPGARGSLVERIVELAVQYVQVQLTERREHLLAEQAFRQEALLNPRLRELADAHQRILSLGAVHFFQVLGSGQPEQDAKVLTSIILQMEYQGLVDGVEQLAVDEMRAILRRYLNLVMGL”, the “soluble on expression in E. coli” value is given as “soluble”.

“KKTVRRILGVVEIGGSGENITKTELFKYDGISDSVVKTGICMWEEDVCQIAGITRDELMDDRINRKKVLKYMVNNNINDIRKVGDVLKQYQENPENVLKNIL”: the “soluble on expression in E. coli” value is reported as “not soluble”.

With “MGSDKIHHHHHHAEKLSDGKVKLGVLTDMTGYYADLAGPGSVVAARMAVEDFGGKVLGKPVELVSADHQLKADVASNIARKWIDEGQVDAIVDLVSSSTAGAVMPVAAEKKRITLLSGPGTTAFTGEKCTRYNVHYTYNNWALANGTGREVVKQGGDSWFFLTADYIFGKSLEEDTTKVVKAAGGKVLGAARYPSPGTTDFSSYLLQAQGSGAKIVGLANAGADTVNSIRQAEEFGVTPKQSLAGLLVFITDVHSLGLEAAKGMYLTTAFYWDLNDETRKWSRRFFQKHGKMPTMVQAGVYSSVMHYLKAVQAAGTDDADAVMAKMRETPVNDFFAKNARIGPDGLLRHDMYLARVKAPKDSKQPWDYYQIVKTIPAAEAFPSVEAQACPLAKR”, the “soluble on expression in E. coli” value is on record as “not soluble”.

On to “AGYPPASPSNLSCLMHLTTNSLVCQWEPGPETHLPTSFILKSFRSRADCQYQGDTIPDCVAKKRQNNCSIPRKNLLLYQYMAIWVQAENMLGSSESPKLCLDPMDVVKLEPPMLQALDIGPDVVSHQPGCLWLSWKPWKPSEYMEQECELRYQPQLKGANWTLVFHLPSSKDQFELCGLHQAPVYTLQMRCIRSSLPGFWSPWSPGLQLRPTMKA”, for which the “soluble on expression in E. coli” value was “soluble”.
